The values that follow come from patent US20220041711A1 (NGM BIOPHARMACEUTICALS, published 2022).

Read-outs that look alike come from different tables or passages of the source.

In experiment [1] the target is T1, mouse LAIR-1 (form in the assay not stated) (mouse, UniProt Q8BG84 22-144, limits assumed).
T1 sequence: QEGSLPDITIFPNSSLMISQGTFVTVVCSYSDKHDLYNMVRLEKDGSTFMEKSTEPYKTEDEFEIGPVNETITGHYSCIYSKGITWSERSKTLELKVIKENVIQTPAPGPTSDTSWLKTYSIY
Briefly: SPR (Biacore). On the technique in general: Surface plasmon resonance follows binding to a sensor surface in real time, without labels.

The target of experiment [2] is T2, human LAIR-1-CD3ζ chimeric receptor on NFAT-GFP reporter cells (human, UniProt P20963 31-164, limits assumed). Briefly: cell-based or functional assay.
The target of experiment [3] is T2, human LAIR-1-CD3ζ chimeric receptor on …. Kind of experiment: cell-based or functional assay. This is another data set of the same source.
Experiment [4] addresses T3, cyno LAIR-1-CD3ζ chimeric receptor on NFAT-GFP reporter cells (cynomolgus monkey; human). Briefly: cell-based or functional assay.
In experiment [5] the target is T2, human LAIR-1-CD3ζ chimeric receptor on …. Kind of experiment: cell-based or functional assay. The source holds these as a separate data set.
The target in experiment [6] is T3, cyno LAIR-1-CD3ζ chimeric receptor on …. Kind of experiment: cell-based or functional assay. This is another data set of the same source.
In the next experiment the target is T4, human LAIR-1-Fc (human, UniProt Q6GTX8 22-165).
T4 construct: also called biotinylated human LAIR-1-Fc; not shown: a Fc region
T4 chain: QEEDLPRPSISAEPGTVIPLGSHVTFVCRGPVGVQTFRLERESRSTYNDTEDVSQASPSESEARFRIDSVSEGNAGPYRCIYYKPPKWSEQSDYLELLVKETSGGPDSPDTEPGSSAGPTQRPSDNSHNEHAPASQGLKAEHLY
Kind of experiment: ELISA blocking: plate coated with 5 µg/mL human collagen type 1, antibody titrated, 1 µg/mL biotinylated human LAIR-1-Fc, streptavidin-HRP, OD650.

The target of experiment [7] is T1, mouse LAIR-1 (form in the assay not …). Kind of experiment: not described.
The next experiment concerns the target T5, human LAIR-1-ECD (human, UniProt Q6GTX8 22-165).
T5 construct: Recombinant, expressed in mammalian cells; also called extracellular region of human LAIR-1
T5 chain: T4 chain
Briefly: SPR (Biacore) as in Example 2.

B1: ch43H2 (antibody, V domains shown)
VH: EVQLVESGGGLVQPGRSLKVSCAASGFTFSNYGIHWIRQAPTKGLEWVASISPSGRSTYFRDSVKGRFTISRDNAKNTLYLQLDSLRSEDTATYYCATGINYSSFDYWGQGVMVTVSS
VL: DIVMTQSPTSMSISVGDRVTMNCKASQNVGSHVDWYQQKTGQSPKLLISTASNRYTGVPDRFTGSGSGTDFTFTINNMQTEDLAVYYCMQSNSYPPTFGGGTKLELK
notes: also called purified ch43H2
As a reminder, the Kd is the free concentration of one partner at which half of the binding sites on the other are occupied at equilibrium, for simple one-to-one binding. The koff is a measure of how fast the partners let go of each other. Higher therefore signals fast dissociation. For orientation: kon means the rate constant with which the complex forms. The low end stands for slow association, the high end for fast association. On to B1, for which, in experiment [1], the Kd came to 1.1 nM, the koff was determined as 0.00057 s⁻¹ and the kon was 530000 M⁻¹ s⁻¹.

B2: anti-LAIR-1 antibody ch57D12 (antibody, V domains shown)
VH: QVQLQQSGAELARPGASVNLSCRASGYSFTSFGISWVKQRTGQGLEWIGEIYPRSDNTFYNEKFKGKATLTADKSSSTAYMELRSLTSEDSAVYFCARHFGSSSFDYWGQGTTLTVSS
VL: ENVLTQSPPIMAASLGQKVTMTCSASSSVSSIYFHWYQQKSGTSPKPLIHRASNLASGVPARFSGSGSGTSYSLTISSVEAEDDATYYCQQWSGYPLTFGGGTKLEIK
notes: The prefix 'ch' is not defined
For the molecule B2, in experiment [2], the “IC50 (read off the curve): % GFP+ human LAIR-1 reporter cells on coated MARCO-his” value was about 0.2 nM, the “IC50 (read off the curve): % GFP+ human LAIR-1 reporter cells on coated collagen 1” value was about 0.7 nM and the “IC50 (read off the curve): % GFP+ human LAIR-1 reporter cells on coated collagen 4” value is about 0.4 nM. Further, in experiment [3], the “IC50 (read off the curve): % GFP+ human LAIR-1 reporter cells on coated MARCO-his” value is about 0.3 nM, the “IC50 (read off the curve): % GFP+ human LAIR-1 reporter cells on coated collagen 1” value was about 0.3 nM and the “IC50 (read off the curve): % GFP+ human LAIR-1 reporter cells on coated collagen 4” value was about 0.2 nM. Moreover, in experiment [4], the “IC50 (read off the curve): % GFP+ cyno LAIR-1 reporter cells on coated MARCO-his” value was about 1 nM, the “IC50 (read off the curve): % GFP+ cyno LAIR-1 reporter cells on coated collagen 1” value was about 2 nM and the “IC50 (read off the curve): % GFP+ cyno LAIR-1 reporter cells on coated collagen 4” value is about 0.8 nM. The “IC50 (read off the curve): % GFP+ human LAIR-1 reporter cells on polymerized collagen matrix” value in experiment [5] is about 0.3 nM. In addition, in experiment [6], the “IC50 (read off the curve): % GFP+ cyno LAIR-1 reporter cells on polymerized collagen matrix” value was about 1 nM. Moreover, in the experiment with human LAIR-1-Fc, the “IC50 (read off the curve)” value is about 5 nM.

B3: humanized anti-LAIR-1 antibody Hz62G10.v1 (antibody, human IgG1, kappa, N297G, V domains shown)
VH: EVQLVESGGGLVKPGGSLRLSCAASGFTFNINAMNWVRQAPGKGLEWVARIRTKNNNFATYYADSVKDRFTISRDDSKNTLYLQMNSLKTEDTAVYYCVRGPYFDYWGQGTLVTVSS
VL: DIQMTQSPSSLSASVGDRVTITCLASQTIGTWLAWYQQKPGKAPKLLIYAATSLADGVPSRFSGSGSGTDFTLTISSLQPEDFATYYCQQLYSTPYTFGGGTKVEIKR
notes: Humanized 62G10
For B3, the binding result in experiment [7] is “no binding”. In the experiment with human LAIR-1-ECD, binding was put at a Kd of 1.1 nM, the koff is 0.00079 s⁻¹ and the kon amounted to 700000 M⁻¹ s⁻¹. Moreover, in experiment [3], the “IC50 (read off the curve): % GFP+ human LAIR-1 reporter cells on coated MARCO-his” value is about 0.05 nM, the “IC50 (read off the curve): % GFP+ human LAIR-1 reporter cells on coated collagen 1” value was about 0.04 nM and the “IC50 (read off the curve): % GFP+ human LAIR-1 reporter cells on coated collagen 4” value is about 0.03 nM. In addition, in experiment [4], the “IC50 (read off the curve): % GFP+ cyno LAIR-1 reporter cells on coated MARCO-his” value is about 0.2 nM, the “IC50 (read off the curve): % GFP+ cyno LAIR-1 reporter cells on coated collagen 1” value is about 0.4 nM and the “IC50 (read off the curve): % GFP+ cyno LAIR-1 reporter cells on coated collagen 4” value was about 0.2 nM. The “IC50 (read off the curve): % GFP+ human LAIR-1 reporter cells on polymerized collagen matrix” value in experiment [5] was about 0.03 nM. For the same molecule, the “IC50 (read off the curve): % GFP+ cyno LAIR-1 reporter cells on polymerized collagen matrix” value in experiment [6] is about 0.2 nM. Also, the “IC50 (read off the curve)” value in the experiment with human LAIR-1-Fc was about 3 nM.
